System: purified wild-type Gα13 pre-loaded with GDP
Sequence (chain, as listed by the source): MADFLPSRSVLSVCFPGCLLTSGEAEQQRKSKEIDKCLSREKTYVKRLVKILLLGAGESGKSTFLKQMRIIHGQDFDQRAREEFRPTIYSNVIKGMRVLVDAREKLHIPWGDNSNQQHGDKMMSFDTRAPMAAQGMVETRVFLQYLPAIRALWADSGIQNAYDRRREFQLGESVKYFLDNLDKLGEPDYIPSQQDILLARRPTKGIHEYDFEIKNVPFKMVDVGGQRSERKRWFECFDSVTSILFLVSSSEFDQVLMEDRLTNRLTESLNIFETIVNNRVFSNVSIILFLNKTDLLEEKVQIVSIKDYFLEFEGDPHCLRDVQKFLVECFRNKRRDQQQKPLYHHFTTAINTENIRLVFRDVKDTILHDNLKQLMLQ

Q: Which “guanine nucleotide exchange or GTPase activity” value does the source give for purified Rac1(GTPγS) here?
A: No significant changes in these activities were examined

— US20080020994
